Test results as given in paper PMC11946523 (Toxins, 2025).

Legend:
[1] = target: Botulinum neurotoxin serotype A (BoNT/A) holotoxin (Clostridium botulinum serotype A, …, UniProt P0DPI1); experiment: SPR; Biacore; […] (50 ug/mL) […], in HBS-EP ([…]; 120 s flow, 600 s dissociation; […]; conditions: both partners purified
[2] = target: recombinant C-terminal domain of the BoNT/A heavy chain (heavy chain receptor domain, HCR) (Clostridium botulinum serotype A, …, UniProt P0DPI1); experiment: as above; conditions: both partners purified

B1: HZ45 humanized monoclonal antibody (antibody, V domains shown)
VH: EVQLVQSGAEVKKPGASVKVSCKASGYTFTDYYINWVRQATGQGLEWLGESYPGSGTAFYNEKFKGKATLTADKSKNTAYMELSSLRSEDTAVYFCARSDGSPFAYWGQGTLVTVSS
VL: DIQMTQSPSSLSASVGDRVTITCKASDYINNWLAWYQQKPGKAPKLLISGAISLETGVPSRFSGSGSGTDYTLTISSLQPEDFATYYCQQYWSPPLTFGQGTKVEIK
notes: also called HZ45 mAb; HZ45 antibody; source: CHO-K1, transfected, purified from culture medium (ammonium sulfate, HIC-Phenyl)
Kd [1]: 0.551 nM | Kd [2]: 0.0423 nM
